# Test system: Bacillus subtilis
# Assay: cleaved RNA product abundance (RNA/gDNA barcode ratio) relative to median wild-type variant (ratio to wild type); higher = more accumulation of the downstream cleavage product
# Outline: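 In LB at 37°C, B. subtilis cultures went from OD600 0.0003 to 0.3. Their chromosomes held barcoded reporter mRNAs, truncated aprE or tetM, with RNase Y cleavage-site windows mutagenized via oligos at a 9% error rate. Cleaved RNA, chosen by gel, was reverse transcribed and barcode-sequenced alongside genomic DNA barcodes with UMI collapsing, giving a per-construct RNA:gDNA ratio scaled to the median construct with the unmutated site. This scaled ratio is termed cleaved product abundance.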
# [1] = experiment (reporter, strain, medium): exp 8a: truncated aprE reporter, strain BJT201 with 2% xylose (RNase J1 expressed), cleavage site: glnRA (positions -5 to +31 mutated)
# [2] = experiment (reporter, strain, medium): exp 4a: truncated aprE reporter, strain BJT201 with 2% xylose (RNase J1 expressed), cleavage site: cggR-gapA (positions -7 to +36 mutated)
# [3] = experiment (reporter, strain, medium): exp 2b: truncated aprE reporter, strain BJT200, cleavage site: cggR-gapA (positions -7 to +36 mutated)
Sequence,cleaved RNA product abundance [1],cleaved RNA product abundance [2],cleaved RNA product abundance [3]
CGACATGTCCCGCTTCTTTCATTAATACGTTAGCAACTGTTATGCTATATACATTTACCTTTTAAGAGGAGGAAT,0.886,,
ACAGACGAAGGAGCCGCAAAGAAGTTTTTAAGGGATCAATAATCCCTCAATATAAATATCTCTCACTTATTTAAA,,0.289,
ACAGACGAAGGAGCCGCAAATAAGTTATTAACGGATGAATAATCCCTCAATATAAATATCTCTCACTTATTTAAA,,0.157,0.113
ACAGACGAAGGAGCCGCAAAGAATTTATTAAGGGATCAATAATCCCTCAATATAAATATCTCTCACTTATTTAAA,,0.73,
CGACATGTCCCGCTTCTTTCATTAATCCGTTAGCAAGTGTTTTACTATATACATTTACCTTTTAAGAGGAGGAAT,0.824,,
ACAGACGAAGGAGCCGCAAAGAAGTTATTAAGGGAGGAATAATCCCTCAAAATAAATATCTCTCACTTATTTAAA,,0.284,
CGACATGTCCCGCTTCTTTCATTAATCCCTTAGCAACTGTTTTGCTATATACATTTACATTTTAAGAGGAGGAAT,0.242,,
ACAGACGAAGGAGCCGCAAAGAAGTTATTAACTGATGAATAATCCCTCAATATAAATATCTCTCACTTATTTAAA,,0.118,0.0892
ACAGACGAAGGAGCCGCAAAGAAGTTATAAAGGGACGAATAATCCCTCAATATAAATATCTCTCACTTATTTAAA,,0.326,
ACAGACGAAGGAGCCGCAATGAATTTATTAAGGGATGAATAATCCCTCAATATAAATATCTCTCACTTATTTAAA,,0.786,
ACAGACGAAGGAGCCGCAAAGAAGTTAGTAAGGGATGAATAATCCGTCAATATAAATATCTCTCACTTATTTAAA,,0.218,
CGACATGTCCCGCTTCTTTCATTAATCCGTTAGCAACTGATTTTCTATATACATTTACCTTTTAAGAGGAGGAAT,0.689,,
CGACATGTCCCGCTTCTTTCATTAATCGGTTAGCAACTGTTTTGCAATATACATTTACCTTTTAAGAGGAGGAAT,0.349,,
CGACATGTCCCGCTTCTTTCATTAAGCCGTTATCAACTGTTTTGCTATATACATTTACCTTTTAAGAGGAGGAAT,0.21,,
ACAGACGAAGGAGCCGCATAGAAGTTATAAAGGGATGAATAATCCCTCAATATAAATATCTCTCACTTATTTAAA,,0.339,
CGACATGTCCCGCTTCTTTCATTAATTCGTTAGCAACTGTTTTGCTATATACATTTACGTTTTAAGAGGAGGAAT,0.881,,
ACAGACGAAGGAGCCGCAAAGAAATTATTAATGGATGAATAATCCCTCAATATAAATATCTCTCACTTATTTAAA,,0.169,0.122
ACAGACGAAGGAGCCGCAAAGAAGTTTTTAAGAGATGAATAATCCCTCAATATAAATATCTCTCACTTATTTAAA,,0.183,
CGACATGTCCCGCTTCTTTCATTAATCCGTTAGCACCTGTTTTGCTATATACATTTACTTTTTAAGAGGAGGAAT,0.499,,
ACAGACGAAGGAGCCGCAAAGAAGTTATCAAGGTATGAATAATCCCTCAATATAAATATCTCTCACTTATTTAAA,,0.169,
ACAGACGAAGGAGCCGCAAAGAAGTTATTAATGGATGAATCATCCCTCAATATAAATATCTCTCACTTATTTAAA,,0.189,0.122

Sequence,cleaved RNA product abundance [1],cleaved RNA product abundance [2],cleaved RNA product abundance [3]
CGACATGTCCCGCTTCTTTCATTAAACCGTTAGCAACTGTTTTGCTATATACATTTTCCTTTTAAGAGGAGGAAT,0.432,,
ACAGACGAAGGAGCCGCAAAGAAGTTACTAAGGCATGAATAATCCCTCAATATAAATATCTCTCACTTATTTAAA,,0.112,
ACAGACGAAGGAGCCGCAAACAAGTTACTAAGGGATGAATAATCCCTCAATATAAATATCTCTCACTTATTTAAA,,,0.169
ACAGACGAAGGAGCCGCATAGAAGTTATTAAGGGATGAATAATCTCTCAATATAAATATCTCTCACTTATTTAAA,,,1.08
CGACATGTCCCGCTTCTTTCATTAATCCGTTAGTAACTGTTTTGCTATAAACATTTACCTTTTAAGAGGAGGAAT,0.389,,
ACAGACGAAGGAGCCGCATAGAAGTTATTAAGGAATGAATAATCCCTCAATATAAATATCTCTCACTTATTTAAA,,0.135,0.082
ACAGACGAAGGAGCCGCAAACAAGTTATTAAGGGATGAATAATCCCTCAATATAACTATCTCTCACTTATTTAAA,,0.0791,
ACAGACGAAGGAGCCGCAAAGAAGTTATTAAGAGCTGAATAATCCCTCAATATAAATATCTCTCACTTATTTAAA,,,0.0922
ACAGACGAAGGAGCCGCAAAGAAGTTATTAACGGATGAATAATCCCTCAATATATATATCTCTCACTTATTTAAA,,0.152,0.158
CGACATGTCCCGCTTCTTTCATTATTCCGTTAGTAACTGTTTTGCTATATACATTTACCTTTTAAGAGGAGGAAT,0.651,,
ACAGACGAAGGAGCCGCAAAGAAGTTATCAAGGGATGAATAATGCCTCAATATAAATATCTCTCACTTATTTAAA,,0.19,
CGACATGTCCCGCTTCTTTCATTAATCCGTTAGCAATTGTTTTGCTATATACAATTACCTTTTAAGAGGAGGAAT,1.24,,
ACAGACGAAGGAGCCGCAAAGAAGTCATTAAGGGATGTATAATCCCTCAATATAAATATCTCTCACTTATTTAAA,,,0.16
CGACATGTCCCGCTTCTTTCATTAATCCATTAGCAACTTTTTTGCTATATACATTTACCTTTTAAGAGGAGGAAT,0.569,,
CGACATGTCCCGCTTCTTTCATTAATACATTAGCGACTTTTTTGCTATATACACTTACCTTTTAAGAGGAGGAAT,0.352,,
ACAGACGAAGGAGCCGCAAAGAATTTATTAAGGGATGTATAATCCCTCAATATAAATATCTCTCACTTATTTAAA,,0.683,
CGACATGTCCCGCTTCTTTCATTAATCCGTTCGCAACTTTTTTGCTATATACATTTACCTTTTAAGAGGAGGAAT,0.381,,
ACAGACGAAGGAGCCGCAAAGAAGTTATTAATGGACGAATAATCCCTCAATATAAATATCTCTCACTTATTTAAA,,0.0953,0.0737
CGACATGTCCCGCTTCTTTCATTAATCCGTTAGCAACTGTTTTGCCATATACATTTAACTTTTAAGAGGAGGAAT,0.406,,
ACAGACGAAGGAGCCGCAAAGAAGTTATTAAGGGATGAATAATCCTTCAGTATAAATATCTCTCACTTATTTAAA,,0.166,
CGACATGTCCCGCTTCTTTCATTATTCCGTTTGCAACTGTTTTGCTATATACATTTACCTTTTAAGAGGAGGAAT,0.543,,

Sequence,cleaved RNA product abundance [1],cleaved RNA product abundance [2],cleaved RNA product abundance [3]
ACAGACGAAGGAGCCGCAAAGAAGTTATTAAGGGATGAATAACCCCTCTATATAAATATCTCTCACTTATTTAAA,,0.229,
ACAGACGAAGGAGCCGCAAAGAAGTTATTTAGGGATGAATAATCCCTCAAGATAAATATCTCTCACTTATTTAAA,,,0.16
CGACATGTCCCGCTTCTTTCATTAATCCGTTACCAACTGTTTTGCGATATACATTTACCTTTTAAGAGGAGGAAT,0.264,,
ACAGACGAAGGAGCCGCAAGGAAGTTATTAAGGCATGAATAATCCCTCAATATAAATATCTCTCACTTATTTAAA,,0.148,
ACAGACGAAGGAGCCGCAAAGAAGTTATTAAGGGATGTATAATCGCTCAATATAAATATCTCTCACTTATTTAAA,,0.173,
CGACATGTCCCGCTTCTTTCATTATTCCTTTACCAACAGTTTTGCTATATACATTTACCTTTTAAGAGGAGGAAT,0.112,,
ACAGACGAAGGAGCCGCAAAGATATTATTAAGGGATGAATAATCCCTCAATATAAATATCTCTCACTTATTTAAA,,0.459,0.93
ACAGACGAAGGAGCCGCAAAGAAGTTATTAATGGATGAATAAACCCTCAATATAAATATCTCTCACTTATTTAAA,,0.107,0.0999
CGACATGTCCCGCTTCTTTCATTACTCCGTTAGTAACTGTTTTGCTATATACATTTACCTTTTAAGAGGAGGAAT,0.482,,
ACAGACGAAGGAGCCGCAGAGAAGTTATTAATGGATGAATAATCCCTCAATATAAATATCTCTCACTTATTTAAA,,0.184,
CGACATGTCCCGCTTCTTTCATTAATCTGTTAGCAACTGTTTTGCTATATACATCTACCTTTTAAGAGGAGGAAT,0.993,,
ACAGACGAAGGAGCCGCAAAGAAGTCTTTAAGGGATGAATAATCCCTCAATATAAATATCTCTCACTTATTTAAA,,0.181,
ACAGACGAAGGAGCCGCAAAGAAGTTATTACGGGATGAATAATCCCTAAATATAAATATCTCTCACTTATTTAAA,,0.394,0.428
CGACATGTCCCGCTTCTTTCATTAATCCGTTAGCAACTATTTTGCTATATACATGTACCTTTTAAGAGGAGGAAT,1.19,,
ACAGACGAAGGAGCCGCAAAGAAGTTATTAAGGGGTGAATAATTCCTCAATATAAATATCTCTCACTTATTTAAA,,0.228,
ACAGACGAAGGAGCCGCAAAGAAGTTATTAAGGGATCAATAATACCTAAATATAAATATCTCTCACTTATTTAAA,,0.0917,
ACAGACGAAGGAGCCGCAAAGAAGCTATTAAAGGATGAATAATCCCTCAATATAAATATCTCTCACTTATTTAAA,,0.144,0.111
CGACATGTCCCGCTTCTTTCATTACTACGTTAGCAACTGTTTTGCTATATACATTTACCTTTTAAGAGGAGGAAT,2.07,,
CGACATGTCCCGCTTCTTTCATTAAACCGTTAGCAACTGTTTAGCTATATACATTTACCTTTTAAGAGGAGGAAT,0.248,,
ACAGACGAAGGAGCCGCAAAGAAGTTATTATGGGATGAATAATCCCTCAATTTAAATATCTCTCACTTATTTAAA,,0.169,

# Reference: the supplement of paper PMC11780869
